According to patent publication US20210284694A1 (published 2021):
One block for each binder: values may come before it. Starred links: 1 amine or outer side, 2 acyl side, 3 side chain; linkers in the order of their positions; H or OH if unused. Positions of bridges follow the written chain, without caps; N, C: chain ends. Non-standard residues stand in square brackets, D forms with d. Phe(4-OMe) = COc1ccc(C[C@H](N[*:1])C(=O)[*:2])cc1; Trp(5-F) = N[C@@H](Cc1c[nH]c2ccc(F)cc12)C(=O)O; mXylylene = c1cc(C[*:1])cc(C[*:2])c1; αMeP = C[C@@]1(C(=O)O)CCCN1; Mpa = O=C(O)CCS

Legend:
biotinylated PCSK9 [1] = target: T1, biotinylated PCSK9 (UniProt Q8NBP7 31-692, limits assumed, biotinylated); assay: method of the KD not told; tracer of the Alexa FRET Standard assay
T1 construct: also called europium-labeled PCSK9

biotinylated PCSK9 [2] = target: T1, biotinylated PCSK9; assay: method of the KD not told; tracer of the Alexa FRET Plus assay

T1 sequence (Q8NBP7 31-692 limits assumed): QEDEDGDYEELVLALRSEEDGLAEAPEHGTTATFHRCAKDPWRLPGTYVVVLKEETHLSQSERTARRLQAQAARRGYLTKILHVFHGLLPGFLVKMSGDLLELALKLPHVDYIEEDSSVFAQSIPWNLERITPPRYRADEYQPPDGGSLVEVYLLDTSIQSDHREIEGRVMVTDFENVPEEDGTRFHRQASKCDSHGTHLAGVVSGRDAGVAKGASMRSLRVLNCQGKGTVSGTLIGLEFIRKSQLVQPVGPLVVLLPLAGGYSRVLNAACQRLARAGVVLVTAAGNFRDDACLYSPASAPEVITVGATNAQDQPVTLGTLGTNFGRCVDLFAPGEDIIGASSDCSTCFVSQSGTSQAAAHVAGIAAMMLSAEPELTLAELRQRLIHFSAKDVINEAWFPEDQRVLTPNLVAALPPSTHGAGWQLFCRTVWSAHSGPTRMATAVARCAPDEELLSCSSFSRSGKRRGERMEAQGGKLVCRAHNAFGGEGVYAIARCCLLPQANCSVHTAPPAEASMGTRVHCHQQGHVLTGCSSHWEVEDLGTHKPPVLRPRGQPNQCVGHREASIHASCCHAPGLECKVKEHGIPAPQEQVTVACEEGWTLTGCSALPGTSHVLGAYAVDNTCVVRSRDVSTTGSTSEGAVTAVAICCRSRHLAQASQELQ

Kd (biotinylated PCSK9 [1]): 83 nM
B1: Reagent A (peptide)
peptide: [Mpa]K(AlexaFluor647)G[Trp(5-F)][Trp(5-F)]DHY[αMeP]C-NH2
modifications: linker N-10 via mXylylene
notes: also called AlexaFluor647 (AF) tagged cyclic peptide; AF cyclic peptide

Kd (biotinylated PCSK9 [2]): 35 nM
B2: Reagent B (peptide)
peptide: [Mpa]K(AlexaFluor647)[dA][Trp(5-F)][Trp(5-F)]DH[Phe(4-OMe)][αMeP]C-NH2
modifications: linker N-10 via mXylylene
notes: as for B1
